Laboratory results taken from paper PMC9482650, “Quantitative fragmentomics allow affinity mapping of interactomes” (Nature Communications, 2022).

T1: LIN7C, Q9NUP9
T1 sequence (Q9NUP9 88-185, limits assumed, looked up): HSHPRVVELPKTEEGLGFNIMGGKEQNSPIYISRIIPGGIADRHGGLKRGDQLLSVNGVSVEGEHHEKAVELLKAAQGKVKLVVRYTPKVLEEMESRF

T2: LNX2_2, Q8N448
T2 sequence (Q8N448 334-432, limits assumed, looked up): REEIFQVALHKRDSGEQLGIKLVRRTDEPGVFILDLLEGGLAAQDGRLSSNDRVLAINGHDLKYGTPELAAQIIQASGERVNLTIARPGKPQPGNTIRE

T3: DFNB31_1, Q9P202
T3 sequence (Q9P202 135-233, limits assumed, looked up): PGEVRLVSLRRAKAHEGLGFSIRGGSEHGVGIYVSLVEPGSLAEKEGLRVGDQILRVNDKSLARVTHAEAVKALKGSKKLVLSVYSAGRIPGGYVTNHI

T4: MPP6, Q9NZW5
T4 sequence (Q9NZW5 125-219, limits assumed, looked up): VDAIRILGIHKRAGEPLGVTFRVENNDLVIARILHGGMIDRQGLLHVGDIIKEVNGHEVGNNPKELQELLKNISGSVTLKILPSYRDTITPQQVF

T5: PTPN13_1, Q12923
T5 sequence (Q12923 1088-1188, limits assumed, looked up): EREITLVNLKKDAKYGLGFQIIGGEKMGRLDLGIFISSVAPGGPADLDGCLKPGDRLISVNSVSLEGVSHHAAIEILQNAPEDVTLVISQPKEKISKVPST

T6: MPP2, Q14168
T6 sequence (Q14168 180-250, limits assumed, looked up): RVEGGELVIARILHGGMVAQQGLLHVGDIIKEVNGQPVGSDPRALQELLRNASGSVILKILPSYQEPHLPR

T7: DLG3_1, Q92796
T7 sequence (Q92796 125-227, limits assumed, looked up): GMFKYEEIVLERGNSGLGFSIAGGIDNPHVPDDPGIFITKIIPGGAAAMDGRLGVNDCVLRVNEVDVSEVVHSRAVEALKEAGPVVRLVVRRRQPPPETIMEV

T8: DFNB31_3, Q9P202
T8 sequence (Q9P202 811-907, limits assumed, looked up): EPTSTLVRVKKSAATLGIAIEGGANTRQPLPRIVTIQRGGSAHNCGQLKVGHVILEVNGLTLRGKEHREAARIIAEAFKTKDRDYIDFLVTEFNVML

T9: SNTA1, Q13424
T9 sequence (Q13424 82-180, limits assumed, looked up): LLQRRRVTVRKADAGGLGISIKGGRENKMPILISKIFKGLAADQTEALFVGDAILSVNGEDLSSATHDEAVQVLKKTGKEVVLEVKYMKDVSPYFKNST

T10: APBA2_1, Q99767
T10 sequence (Q99767 563-664, limits assumed, looked up): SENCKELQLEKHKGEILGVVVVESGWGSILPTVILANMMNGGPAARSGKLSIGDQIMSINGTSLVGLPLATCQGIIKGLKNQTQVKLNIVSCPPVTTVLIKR


Assays:
Experiment in all cases: holdup assay
Design in all cases: key: below the threshold = too weak to quantify, mostly under pKd 3.1 to 4
Conditions in all cases: plain residues with an end cap or a label only (N-terminal biotin on a linker: ttds)
LIN7C, Q9NUP9 = molecular target: T1, LIN7C, Q9NUP9
LNX2_2, Q8N448 = molecular target: T2, LNX2_2, Q8N448
DFNB31_1, Q9P202 = molecular target: T3, DFNB31_1, Q9P202
Inadl_5, Q8NI35 = molecular target: Inadl_5, Q8NI35
Inadl_5, Q8NI35, sequence (Q8NI35 673-780): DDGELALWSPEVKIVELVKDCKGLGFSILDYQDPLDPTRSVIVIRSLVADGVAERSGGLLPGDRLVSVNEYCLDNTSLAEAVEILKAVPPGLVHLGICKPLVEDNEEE

NOS1, P29475 = molecular target: NOS1, P29475
NOS1, P29475, sequence (P29475 9-101): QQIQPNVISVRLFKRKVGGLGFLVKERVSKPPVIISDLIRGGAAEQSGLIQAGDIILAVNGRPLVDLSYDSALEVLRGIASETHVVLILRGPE

Inadl_9, Q8NI35 = molecular target: Inadl_9, Q8NI35
Inadl_9, Q8NI35, sequence (Q8NI35 1530-1615): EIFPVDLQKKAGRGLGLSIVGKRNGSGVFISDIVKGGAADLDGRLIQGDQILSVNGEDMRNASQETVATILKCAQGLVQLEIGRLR

DLG1_1, Q12959 = molecular target: DLG1_1, Q12959
MAGI2_6, Q86UL8 = molecular target: MAGI2_6, Q86UL8
MAGI2_6, Q86UL8, sequence (Q86UL8 1141-1229): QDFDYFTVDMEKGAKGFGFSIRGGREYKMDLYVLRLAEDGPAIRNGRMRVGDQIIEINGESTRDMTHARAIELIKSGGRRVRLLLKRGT

MPP6, Q9NZW5 = molecular target: T4, MPP6, Q9NZW5
PTPN13_1, Q12923 = molecular target: T5, PTPN13_1, Q12923
DLG2_2, Q15700 = molecular target: DLG2_2, Q15700
DLG2_2, Q15700, sequence (Q15700 189-283): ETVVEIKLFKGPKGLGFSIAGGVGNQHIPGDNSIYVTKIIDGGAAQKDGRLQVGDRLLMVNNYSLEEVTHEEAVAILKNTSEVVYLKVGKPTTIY

PICK1, Q9NRD5 = molecular target: PICK1, Q9NRD5
PICK1, Q9NRD5, sequence (Q9NRD5 17-115): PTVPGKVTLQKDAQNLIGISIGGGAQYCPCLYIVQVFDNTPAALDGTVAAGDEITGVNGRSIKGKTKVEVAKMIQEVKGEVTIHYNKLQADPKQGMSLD

GORASP1, Q9BQQ3 = molecular target: GORASP1, Q9BQQ3
GORASP1, Q9BQQ3, sequence (Q9BQQ3 1-208): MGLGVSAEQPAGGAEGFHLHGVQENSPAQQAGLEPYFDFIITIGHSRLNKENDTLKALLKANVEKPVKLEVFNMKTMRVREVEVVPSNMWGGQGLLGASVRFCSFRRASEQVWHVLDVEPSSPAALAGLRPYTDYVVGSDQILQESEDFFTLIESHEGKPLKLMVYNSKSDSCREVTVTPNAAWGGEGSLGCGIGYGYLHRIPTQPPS

LDB3, O75112 = molecular target: LDB3, O75112
LDB3, O75112, sequence (O75112 1-94): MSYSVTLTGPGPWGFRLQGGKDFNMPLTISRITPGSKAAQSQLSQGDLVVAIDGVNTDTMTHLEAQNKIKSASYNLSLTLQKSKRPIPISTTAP

MPP2, Q14168 = molecular target: T6, MPP2, Q14168
MAGI1_2, Q96QZ7 = molecular target: MAGI1_2, Q96QZ7
MAGI1_2, Q96QZ7, sequence (Q96QZ7 456-580): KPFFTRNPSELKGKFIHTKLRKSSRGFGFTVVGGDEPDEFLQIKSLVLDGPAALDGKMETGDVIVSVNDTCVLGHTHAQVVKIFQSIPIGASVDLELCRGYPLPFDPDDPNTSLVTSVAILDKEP

DLG3_1, Q92796 = molecular target: T7, DLG3_1, Q92796
DFNB31_3, Q9P202 = molecular target: T8, DFNB31_3, Q9P202
PTPN3, P26045 = molecular target: PTPN3, P26045
PTPN3, P26045, sequence (P26045 505-587): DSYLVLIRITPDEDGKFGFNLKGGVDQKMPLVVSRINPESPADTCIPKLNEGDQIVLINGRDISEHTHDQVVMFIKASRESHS

TJP1_3, Q07157 = molecular target: TJP1_3, Q07157
TJP1_3, Q07157, sequence (Q07157 416-512): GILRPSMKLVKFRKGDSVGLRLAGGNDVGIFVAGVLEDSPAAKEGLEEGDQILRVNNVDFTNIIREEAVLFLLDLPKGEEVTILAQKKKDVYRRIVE

MAST1, Q9Y2H9 = molecular target: MAST1, Q9Y2H9
MAST1, Q9Y2H9, sequence (Q9Y2H9 962-1065): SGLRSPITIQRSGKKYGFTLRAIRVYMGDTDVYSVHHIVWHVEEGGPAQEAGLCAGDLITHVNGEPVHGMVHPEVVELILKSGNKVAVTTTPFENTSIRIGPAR

CASK, O14936 = molecular target: CASK, O14936
CASK, O14936, sequence (O14936 487-570): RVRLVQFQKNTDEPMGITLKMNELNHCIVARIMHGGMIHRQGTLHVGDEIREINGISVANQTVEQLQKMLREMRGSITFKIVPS

SNTA1, Q13424 = molecular target: T9, SNTA1, Q13424
GOPC, Q9HD26 = molecular target: GOPC, Q9HD26
FRMPD2_3, Q68DX3 = molecular target: FRMPD2_3, Q68DX3
FRMPD2_3, Q68DX3, sequence (Q68DX3 1073-1166): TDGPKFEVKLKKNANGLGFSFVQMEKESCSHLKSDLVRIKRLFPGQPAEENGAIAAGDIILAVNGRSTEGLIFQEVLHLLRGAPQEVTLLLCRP

APBA2_1, Q99767 = molecular target: T10, APBA2_1, Q99767
HTRA2, O43464 = molecular target: HTRA2, O43464
HTRA2, O43464, sequence (O43464 355-458): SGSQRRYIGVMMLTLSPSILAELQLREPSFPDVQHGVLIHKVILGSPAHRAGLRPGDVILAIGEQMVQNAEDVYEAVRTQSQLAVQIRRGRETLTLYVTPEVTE

MAGI2_2, Q86UL8 = molecular target: MAGI2_2, Q86UL8
MAGI2_2, Q86UL8, sequence (Q86UL8 410-522): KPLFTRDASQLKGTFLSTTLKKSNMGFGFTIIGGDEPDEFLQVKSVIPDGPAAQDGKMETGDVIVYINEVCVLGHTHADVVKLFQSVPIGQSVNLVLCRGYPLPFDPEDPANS

Inadl_8, Q8NI35 = molecular target: Inadl_8, Q8NI35
Inadl_8, Q8NI35, sequence (Q8NI35 1425-1530): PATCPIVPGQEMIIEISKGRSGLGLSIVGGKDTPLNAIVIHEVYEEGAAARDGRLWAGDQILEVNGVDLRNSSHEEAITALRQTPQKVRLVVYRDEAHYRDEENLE

Binder	pKd (LIN7C, Q9NUP9)	pKd (LNX2_2, Q8N448)	pKd (DFNB31_1, Q9P202)	pKd (Inadl_5, Q8NI35)	pKd (NOS1, P29475)	pKd (Inadl_9, Q8NI35)	pKd (DLG1_1, Q12959)	pKd (MAGI2_6, Q86UL8)	pKd (MPP6, Q9NZW5)	pKd (PTPN13_1, Q12923)	pKd (DLG2_2, Q15700)	pKd (PICK1, Q9NRD5)	pKd (GORASP1, Q9BQQ3)	pKd (LDB3, O75112)	pKd (MPP2, Q14168)	pKd (MAGI1_2, Q96QZ7)	pKd (DLG3_1, Q92796)	pKd (DFNB31_3, Q9P202)	pKd (PTPN3, P26045)	pKd (TJP1_3, Q07157)	other results
PFRSRSPSEV [GPR6, P46095]	3.63	below the threshold	below the threshold	4.29	3.74	3.47	below the threshold	below the threshold	below the threshold	below the threshold	below the threshold	below the threshold	below the threshold	below the threshold	below the threshold	below the threshold	below the threshold	below the threshold	3.95	below the threshold	pKd (MAST1, Q9Y2H9): below the threshold; pKd (CASK, O14936): below the threshold; pKd (SNTA1, Q13424): below the threshold; pKd (GOPC, Q9HD26): below the threshold; pKd (FRMPD2_3, Q68DX3): below the threshold; pKd (APBA2_1, Q99767): below the threshold; pKd (HTRA2, O43464): below the threshold; pKd (MAGI2_2, Q86UL8): below the threshold; pKd (Inadl_8, Q8NI35): 4.04
SHSSKGETAV [FZD7, O75084]	4.03	below the threshold	3.65	below the threshold	4.41	below the threshold	4.72	4.43	below the threshold	below the threshold	4.55	below the threshold	3.48	below the threshold	below the threshold	3.9	4.01	below the threshold	4.84	below the threshold	pKd (MAST1, Q9Y2H9): 4.77; pKd (CASK, O14936): below the threshold; pKd (SNTA1, Q13424): 4.34; pKd (GOPC, Q9HD26): below the threshold; pKd (FRMPD2_3, Q68DX3): 3.46; pKd (APBA2_1, Q99767): below the threshold; pKd (HTRA2, O43464): below the threshold; pKd (MAGI2_2, Q86UL8): 4.67; pKd (Inadl_8, Q8NI35): below the threshold
